The values below come from patent US10227387 (CHILDREN S HOSPITAL MEDICAL CENTER, dated 2019).

The test concerns the target LRP1 (full-length cDNA of LRP-1, Accession #NM_002332.2) overexpressed on cells (human, UniProt Q07954 20-4544). As to the kind of experiment: cell-based or functional assay.

Sequence of LRP1 (full-length cDNA of LRP-1, Accession #NM_002332.2) overexpressed on cells (Q07954 20-4544): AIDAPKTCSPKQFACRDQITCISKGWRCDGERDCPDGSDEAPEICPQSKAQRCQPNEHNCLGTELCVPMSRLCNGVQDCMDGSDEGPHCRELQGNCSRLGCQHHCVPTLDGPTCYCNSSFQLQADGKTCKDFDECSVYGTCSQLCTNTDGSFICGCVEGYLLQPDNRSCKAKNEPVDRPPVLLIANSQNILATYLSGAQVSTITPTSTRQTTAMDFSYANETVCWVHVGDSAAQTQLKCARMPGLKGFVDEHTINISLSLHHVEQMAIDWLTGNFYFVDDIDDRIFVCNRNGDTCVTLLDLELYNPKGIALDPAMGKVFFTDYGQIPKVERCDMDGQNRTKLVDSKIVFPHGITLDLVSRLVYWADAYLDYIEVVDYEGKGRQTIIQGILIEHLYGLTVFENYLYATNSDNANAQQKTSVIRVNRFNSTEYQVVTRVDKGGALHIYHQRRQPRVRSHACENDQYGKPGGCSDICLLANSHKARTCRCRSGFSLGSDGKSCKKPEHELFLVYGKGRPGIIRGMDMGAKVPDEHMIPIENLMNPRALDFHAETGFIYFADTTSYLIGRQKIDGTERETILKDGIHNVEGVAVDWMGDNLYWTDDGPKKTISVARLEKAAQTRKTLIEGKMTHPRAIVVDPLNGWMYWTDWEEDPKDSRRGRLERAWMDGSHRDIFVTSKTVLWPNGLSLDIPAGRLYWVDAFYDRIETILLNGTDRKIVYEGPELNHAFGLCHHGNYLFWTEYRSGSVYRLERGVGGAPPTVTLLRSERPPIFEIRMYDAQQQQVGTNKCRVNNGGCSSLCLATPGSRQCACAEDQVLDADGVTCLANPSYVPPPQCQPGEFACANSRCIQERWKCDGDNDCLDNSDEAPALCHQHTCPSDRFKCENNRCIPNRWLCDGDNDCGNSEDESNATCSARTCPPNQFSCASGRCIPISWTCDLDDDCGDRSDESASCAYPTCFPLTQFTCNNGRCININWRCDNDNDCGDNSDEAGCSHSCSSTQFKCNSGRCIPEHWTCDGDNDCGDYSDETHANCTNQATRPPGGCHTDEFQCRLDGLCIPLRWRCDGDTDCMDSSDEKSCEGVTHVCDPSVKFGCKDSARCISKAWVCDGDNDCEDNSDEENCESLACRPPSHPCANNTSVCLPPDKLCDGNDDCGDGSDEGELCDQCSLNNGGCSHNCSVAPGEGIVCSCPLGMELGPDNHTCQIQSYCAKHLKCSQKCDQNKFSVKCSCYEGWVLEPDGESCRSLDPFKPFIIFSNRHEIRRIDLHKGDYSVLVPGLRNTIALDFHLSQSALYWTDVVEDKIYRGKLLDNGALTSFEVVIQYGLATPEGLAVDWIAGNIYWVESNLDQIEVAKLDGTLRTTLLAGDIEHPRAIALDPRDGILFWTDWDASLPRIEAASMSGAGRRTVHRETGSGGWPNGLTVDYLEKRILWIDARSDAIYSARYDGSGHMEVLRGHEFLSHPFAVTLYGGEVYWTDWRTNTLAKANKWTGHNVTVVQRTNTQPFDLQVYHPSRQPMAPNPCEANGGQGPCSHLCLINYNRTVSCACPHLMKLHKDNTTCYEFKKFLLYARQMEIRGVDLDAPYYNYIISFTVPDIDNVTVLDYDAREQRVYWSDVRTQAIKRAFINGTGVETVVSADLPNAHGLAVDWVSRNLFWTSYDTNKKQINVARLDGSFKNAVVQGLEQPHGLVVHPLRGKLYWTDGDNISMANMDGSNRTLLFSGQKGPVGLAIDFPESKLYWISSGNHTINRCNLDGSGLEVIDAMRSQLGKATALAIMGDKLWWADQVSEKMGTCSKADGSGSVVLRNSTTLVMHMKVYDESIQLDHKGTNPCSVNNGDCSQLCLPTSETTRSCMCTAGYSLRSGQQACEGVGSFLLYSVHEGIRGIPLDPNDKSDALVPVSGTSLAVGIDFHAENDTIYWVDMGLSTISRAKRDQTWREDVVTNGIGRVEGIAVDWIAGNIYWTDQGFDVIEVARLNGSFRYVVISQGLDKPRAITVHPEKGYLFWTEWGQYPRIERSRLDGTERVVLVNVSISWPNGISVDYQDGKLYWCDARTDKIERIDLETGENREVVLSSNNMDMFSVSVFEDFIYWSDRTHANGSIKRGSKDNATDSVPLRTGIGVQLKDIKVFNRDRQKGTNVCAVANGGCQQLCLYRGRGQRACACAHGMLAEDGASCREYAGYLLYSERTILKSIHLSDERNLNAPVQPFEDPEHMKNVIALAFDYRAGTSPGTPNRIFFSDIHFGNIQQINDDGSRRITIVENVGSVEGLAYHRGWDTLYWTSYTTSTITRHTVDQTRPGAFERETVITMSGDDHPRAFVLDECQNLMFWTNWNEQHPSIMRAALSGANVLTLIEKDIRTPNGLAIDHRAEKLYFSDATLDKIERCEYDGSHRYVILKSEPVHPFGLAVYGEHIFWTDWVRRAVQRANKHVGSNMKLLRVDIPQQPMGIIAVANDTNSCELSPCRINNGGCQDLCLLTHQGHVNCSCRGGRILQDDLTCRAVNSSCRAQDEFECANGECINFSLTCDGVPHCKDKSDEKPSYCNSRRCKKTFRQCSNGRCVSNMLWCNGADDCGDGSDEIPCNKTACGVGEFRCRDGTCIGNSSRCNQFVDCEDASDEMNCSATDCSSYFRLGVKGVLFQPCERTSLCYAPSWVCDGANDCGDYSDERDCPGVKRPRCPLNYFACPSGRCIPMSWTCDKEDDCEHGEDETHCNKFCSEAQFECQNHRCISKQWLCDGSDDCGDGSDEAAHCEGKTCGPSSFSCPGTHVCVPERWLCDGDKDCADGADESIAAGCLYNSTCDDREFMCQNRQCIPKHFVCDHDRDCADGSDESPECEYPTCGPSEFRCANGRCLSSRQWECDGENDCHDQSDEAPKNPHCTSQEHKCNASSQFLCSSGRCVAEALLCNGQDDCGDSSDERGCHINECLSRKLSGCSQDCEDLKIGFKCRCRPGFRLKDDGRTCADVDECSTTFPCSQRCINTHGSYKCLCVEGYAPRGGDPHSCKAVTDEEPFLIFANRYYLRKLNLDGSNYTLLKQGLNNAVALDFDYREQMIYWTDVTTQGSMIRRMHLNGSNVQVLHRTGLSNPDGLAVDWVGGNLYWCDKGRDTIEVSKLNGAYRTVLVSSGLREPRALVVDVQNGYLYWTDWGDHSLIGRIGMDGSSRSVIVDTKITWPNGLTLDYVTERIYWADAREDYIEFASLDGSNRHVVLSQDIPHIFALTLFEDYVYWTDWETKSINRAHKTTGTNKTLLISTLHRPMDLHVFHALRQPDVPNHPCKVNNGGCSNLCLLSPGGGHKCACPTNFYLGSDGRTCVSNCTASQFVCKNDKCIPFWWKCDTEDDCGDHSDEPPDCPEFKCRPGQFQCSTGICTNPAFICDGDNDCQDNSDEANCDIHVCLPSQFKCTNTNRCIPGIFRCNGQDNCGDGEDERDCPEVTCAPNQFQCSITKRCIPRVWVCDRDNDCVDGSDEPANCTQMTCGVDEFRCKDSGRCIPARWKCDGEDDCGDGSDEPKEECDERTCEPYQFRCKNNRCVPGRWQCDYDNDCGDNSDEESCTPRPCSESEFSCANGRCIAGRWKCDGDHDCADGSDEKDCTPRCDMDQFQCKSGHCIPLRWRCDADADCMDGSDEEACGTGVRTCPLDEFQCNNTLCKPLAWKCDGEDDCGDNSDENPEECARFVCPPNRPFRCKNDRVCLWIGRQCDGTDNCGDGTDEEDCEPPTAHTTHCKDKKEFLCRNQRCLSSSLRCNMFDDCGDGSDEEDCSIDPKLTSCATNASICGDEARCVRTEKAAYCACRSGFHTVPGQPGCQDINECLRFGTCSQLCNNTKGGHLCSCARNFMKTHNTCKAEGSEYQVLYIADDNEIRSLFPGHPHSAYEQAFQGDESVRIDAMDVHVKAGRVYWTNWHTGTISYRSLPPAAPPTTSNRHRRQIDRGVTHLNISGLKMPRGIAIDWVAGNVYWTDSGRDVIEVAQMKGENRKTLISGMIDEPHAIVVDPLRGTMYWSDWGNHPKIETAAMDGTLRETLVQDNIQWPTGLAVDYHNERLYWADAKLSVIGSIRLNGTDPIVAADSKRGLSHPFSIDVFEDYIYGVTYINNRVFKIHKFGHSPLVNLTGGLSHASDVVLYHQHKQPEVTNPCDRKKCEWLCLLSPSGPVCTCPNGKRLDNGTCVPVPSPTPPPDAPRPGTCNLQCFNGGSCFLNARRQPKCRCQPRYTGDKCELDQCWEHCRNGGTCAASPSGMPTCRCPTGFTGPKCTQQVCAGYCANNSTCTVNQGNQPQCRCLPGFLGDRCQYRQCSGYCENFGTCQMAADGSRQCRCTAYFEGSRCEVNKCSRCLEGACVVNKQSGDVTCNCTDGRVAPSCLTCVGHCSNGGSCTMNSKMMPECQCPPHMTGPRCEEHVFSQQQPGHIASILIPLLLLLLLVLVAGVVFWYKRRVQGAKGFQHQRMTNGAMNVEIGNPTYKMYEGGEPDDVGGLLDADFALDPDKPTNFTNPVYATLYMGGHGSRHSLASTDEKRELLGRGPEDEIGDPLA

B1: IDUAe1 (enzyme)
chain: APHLVHVDAARALWPLRRFWRSTGFCPPLPHSQADQYVLSWDQQLNLAYVGAVPHRGIKQVRTHWLLELVTTRGSTGRGLSYNFTHLDGYLDLLRENQLLPGFELMGSASGHFTDFEDKQQVFEWKDLVSSLARRYIGRYGLAHVSKWNFETWNEPDHHDFDNVSMTMQGFLNYYDACSEGLRAASPALRLGGPGDSFHTPPRSPLSWGLLRHCHDGTNFFTGEAGVRLDYISLHRKGARSSISILEQEKVVAQQIRQLFPKFADTPIYNDEADPLVGWSLPQPWRADVTYAAMVVKVIAQHQNLLLANTTSAFPYALLSNDNAFLSYHPHPFAQRTLTARFQVNNTRPPHVQLLRKPVLTAMGLLALLDEEQLWAEVSQAGTVLDSNHTVGVLASAHRPQGPADAWRAAVLIYASDDTRAHPNRSVAVTLRLRGVPPGPGLVYVTRYLDNGLCSPDGEWRRLGRPVFPTAEQFRRMRAAEDPVAAAPRPLPAGGRLTLRPALRLPSLLLVHVCARPEKPPGQVTRLRALPLTQGQLVLVWSDEHVGSKCLWTYEIQFSQDGKAYTPVSRKPSTFNLFVFSPDTGAVSGSYRVRALDYWARPGPFSDPVPYLEVPVPRGPPSPGNPILKKATAYILLRKLRKRLLLRKLRKRLL
B1: the “intracellular enzyme level in pause-chase uptake assay, CHO^LDLRneg-LRP1 cells, against unmodified IDUA” value stood at 2 fold.
